Where no end group is shown, it is not given here.
B1: Phage-93 (peptide)
peptide: MDWCPRYLWTVCFS
modifications: cysteine pairing not given here; also: displayed on phage as fusion to pIII, linker not given here
B2: Phage-1758 (peptide)
peptide: MCFVTGWGVPDDCN
B3: Phage-1759 (peptide)
peptide: QCVWDRGTWWMACD
B4: Phage-466 (peptide)
peptide: YCAGHAWQYINKCL
modifications: cysteine pairing not given here; also: displayed on phage, fused to pIII
notes: Clonal phage supernatant; not shown: bacteriophage pIII to which the peptide is fused for display
B5: Phage-454 (peptide)
peptide: YWSCFQIPFTCFYF
notes: as for B4
B6: Phage-455 (peptide)
peptide: WECLKYTEANACTY
notes: as for B4
B7: Phage-456 (peptide)
peptide: FMCLPQNPHPLCFK
notes: as for B4
B8: Phage-457 (peptide)
peptide: PDCQTILFKPWCVR
modifications: cysteine pairing not given here; also: displayed on phage, fused to pIII
notes: as for B4
B9: Phage-458 (peptide)
peptide: ACDTYFAGMINECF
modifications: cysteine pairing not given here; also: displayed on phage, fused to pIII
notes: as for B4
B10: Phage-459 (peptide)
peptide: GCQYPWAFDAMSCP
modifications: cysteine pairing not given here; also: displayed on phage, fused to pIII
notes: as for B4
B11: Phage-460 (peptide)
peptide: WCWDYKLWVPTQCP
modifications: cysteine pairing not given here; also: displayed on phage, fused to pIII
notes: as for B4
B12: Phage-461 (peptide)
peptide: WCWDYREWVPMTCP
modifications: cysteine pairing not given here; also: displayed on phage, fused to pIII
notes: as for B4
B13: Phage-467 (peptide)
peptide: WCWYYREWVPMTCP
modifications: cysteine pairing not given here; also: displayed on phage, fused to pIII
notes: as for B4
B14: Phage-462 (peptide)
peptide: ECHWSMWAVGHACF
modifications: cysteine pairing not given here; also: displayed on phage, fused to pIII
notes: as for B4
B15: Phage-463 (peptide)
peptide: YCAGHSPINIGKCL
modifications: cysteine pairing not given here; also: displayed on phage, fused to pIII
notes: as for B4
B16: Phage-464 (peptide)
peptide: WCWDYKLWVPMTCP
modifications: cysteine pairing not given here; also: displayed on phage, fused to pIII
notes: as for B4
B17: Phage-465 (peptide)
peptide: DCWWMFESYPGRCI
modifications: cysteine pairing not given here; also: displayed on phage, fused to pIII
notes: as for B4
B18: Phage-468 (peptide)
peptide: YWYCSPSIVRCVLV
modifications: cysteine pairing not given here; also: displayed on phage, fused to pIII
notes: as for B4
B19: Phage-470 (peptide)
peptide: WICDKSGSIMLCRA
notes: as for B4
B20: Phage-471 (peptide)
peptide: SCAAGASYAWPYCL
notes: as for B4
B21: Peptide-120 (peptide)
peptide: YCEGHLPEYIEKCL
modifications: cysteine pairing not given here; also: biotinylated, site not given here
B22: Peptide-126 (peptide)
peptide: YCEGHLPEYREKCL
modifications: not fully specified; cysteine pairing not given here; also: biotinylated, site not given here
B23: Peptide-121 (peptide)
peptide: YCEGHAPEYIAKCL
modifications: cysteine pairing not given here; also: biotinylated, site not given here
B24: Peptide-127 (peptide)
peptide: YCEGHLPEYLAKCL
modifications: not fully specified; cysteine pairing not given here; also: biotinylated, site not given here
B25: Peptide-117 (peptide)
peptide: YCEGHSPEYILKCL
B26: Peptide-118 (peptide)
peptide: YCEGHRPEYILKCL
B27: Peptide-119 (peptide)
peptide: YCEGHEGIYFWKCL
B28: Peptide-120 (peptide)
peptide: YCEGHLPEYIEKCL
B29: Peptide-121 (peptide)
peptide: YCEGHAPEYIAKCL
B30: Peptide-122 (peptide)
peptide: YCEGHAPEYIRKCL
B31: Peptide-123 (peptide)
peptide: YCEGHAPEYIWKCL
B32: Peptide-135 (peptide)
peptide: YCEGHLPEYIWKCL
B33: Peptide-136 (peptide)
peptide: YCEGHAPEYIGKCL
B34: Peptide-124 (peptide)
peptide: YCEGHSQENIWKCL
B35: Peptide-125 (peptide)
peptide: YCEGHLPEYLGKCL
B36: Peptide-127 (peptide)
peptide: YCEGHLPEYLAKCL
B37: Peptide-128 (peptide)
peptide: YCEGHSQEYLWKCL
B38: Peptide-129 (peptide)
peptide: YCEGHSSEYIQKCL
B39: Peptide-130 (peptide)
peptide: HCSGHHWLQVWKCF
B40: Peptide-131 (peptide)
peptide: YCWSHSPPFIKKCY
B41: Peptide-133 (peptide)
peptide: YCEGHLPEYLEKCV

Biological target: T1, anti-CD28 scFv (VH - linker 1 - VL) (biotinylated (site not given))
T1 construct: Biotinylated scFv captured on neutravidin coated plates in the panning ELISA
Assay: phage ELISA as above; wells pre-incubated with soluble CD28 as competitor;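 also: crude clonal phage supernatants tested, with bound phage detected by HRP-conjugated anti-M13 antibody, and reference wells given blocking buffer without CD28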

T1 sequence (scFv, as listed by the source): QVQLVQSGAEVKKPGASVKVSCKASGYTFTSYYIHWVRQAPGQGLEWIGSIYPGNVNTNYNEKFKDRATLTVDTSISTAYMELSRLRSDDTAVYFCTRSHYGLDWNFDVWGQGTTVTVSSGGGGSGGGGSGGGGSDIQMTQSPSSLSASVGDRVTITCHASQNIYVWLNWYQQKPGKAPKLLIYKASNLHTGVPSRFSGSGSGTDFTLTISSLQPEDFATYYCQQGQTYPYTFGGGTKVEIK

Binder | CD28 scFv signal in presence of CD28
B1 | 0.372

Biological target: T2, Anti-PSMA Fab (SEQ ID NOs: 19, 20)
T2 construct: also called 006 PSMA Fab
Assay: phage ELISA; clonal phage on captured PSMA Fab pre-incubated with PSMA antigen as competitor, anti-M13 HRP detection
Experimental: (§1) Clonal phage were harvested as crude supernatants and screened via standard ELISAs. […] Prior to the addition of clonal phage. wells were incubated with blocking buffer and PSMA antigen or blocking buffer alone. Without washing or aspirating, clonal phage supernatants were then added to the wells and incubated for a short time. Wells were then washed followed by detection of bound phage using a horse radish conjugated anti-M13 antibody.

Binder | Phage binding ELISA, Anti-PSMA Fab signal in the presence of PSMA
B2 | 0.0694
B3 | 0.052

Biological target: T3, Anti-CD28 Fab (SEQ ID NOs: 696, 697)
T3 construct: In the phage ELISA the Fab was biotinylated and captured on neutravidin coated plates
Assay: phage binding ELISA, biotinylated Fab on neutravidin plate, anti-M13 HRP detection;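 also: crude clonal phage supernatants added to Fab-coated wells pretreated with CD28 antigen or with blocking buffer only, bound phage measured after washing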
Experimental: (§2) After panning, phage infected bacteria were plated out and colonies picked into 96 well blocks. Clonal phage was then amplified and separated from bacterial cells via centrifugation.
(§3) Clonal phage were harvested as crude supematants and screened via standard ELISAs. […] Prior to the addition of clonal phage, wells were incubated with blocking buffer and CD28 antigen or blocking buffer alone. Without washing or aspirating, clonal phage supematants were then added to the wells and incubated for a short time. Wells were then washed followed by detection of bound phage using a horse radish conjugated anti-M13 antibody. Clonal phage of interest were then sent for sequence analysis.

T3 sequence (VH, as listed by the source, chain 1 of 2): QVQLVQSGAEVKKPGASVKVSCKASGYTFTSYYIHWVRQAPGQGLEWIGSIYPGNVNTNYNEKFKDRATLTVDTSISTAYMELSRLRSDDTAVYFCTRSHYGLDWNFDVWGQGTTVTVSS
T3 sequence (VL, as listed by the source, chain 2 of 2): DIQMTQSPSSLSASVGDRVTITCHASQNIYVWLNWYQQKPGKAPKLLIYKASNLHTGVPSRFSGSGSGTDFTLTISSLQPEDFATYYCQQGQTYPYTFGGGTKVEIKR

Binder | Anti-CD28 Fab (SEQ ID NOs: 696, 697) signal
B4 | 0.64
B5 | 1.44
B6 | 1.55
B7 | 0.84
B8 | 2.09
B9 | 0.92
B10 | 2.38
B11 | 2.27
B12 | 2.3
B13 | 1.85
B14 | 1.77
B15 | 1.49
B16 | 2.51
B17 | 1.65
B18 | 1.51
B19 | 0.91
B20 | 1.49

Biological target: T1, anti-CD28 scFv (VH - linker 1 - VL)
Assay: phage ELISA; biotinylated anti-CD28 scFv on neutravidin plate, clonal phage supernatant, anti-M13 HRP
Experimental: Clonal phage were harvested as crude supernatants and screened via standard enzyme linked immunosorbent assays (ELISAs). […] Prior to the addition of clonal phage, wells were incubated with blocking buffer and CD28 soluble protein or blocking buffer alone. Without washing or aspirating, clonal phage supernatants were then added to the wells and incubated for a short time. Wells were then washed followed by detection of bound phage using a horse radish peroxidase conjugated anti-M13 antibody.

Binder | CD28 scFv signal
B1 | 2.58

Biological target: anti-CD28 Fab
Assay: BLI (Octet): biotinylated peptide on streptavidin sensor, anti-CD28 Fab titrated in solution, 1:1 model
Target sequence in this assay (VH, as listed by the source, chain 1 of 2): as the sequence (VH, as listed by the source, chain 1 of 2) above
Target sequence in this assay (VL, as listed by the source, chain 2 of 2): as the sequence (VL, as listed by the source, chain 2 of 2) above

Binder | Kd [nM] | koff [s⁻¹] | kon [M⁻¹ s⁻¹] | t1/2 [s]
B21 | 926 | 0.0239 | 25800 | 30
B22 | – | – | – | 36
B23 | 831 | 0.028 | 33700 | 24
B24 | 44.7 | – | – | 60

Biological target: anti-CD28 Fab
Assay: competition ELISA, peptide titrated 0-100 uM against 1 nM anti-CD28 Fab, plate-bound CD28 as competitor
Target sequence in this assay (VH, as listed by the source, chain 1 of 2): as the sequence (VH, as listed by the source, chain 1 of 2) above
Target sequence in this assay (VL, as listed by the source, chain 2 of 2): as the sequence (VL, as listed by the source, chain 2 of 2) above

Binder | IC50 [nM]
B25 | 1530
B26 | 13300
B27 | 77700
B28 | 360
B29 | 480
B30 | 2220
B31 | 1320
B32 | 630
B33 | 4120
B34 | 4070
B35 | 830
B36 | 300
B37 | 9660
B38 | 3180
B39 | > 100000
B40 | > 100000
B41 | 2900

Biological target: T3, Anti-CD28 Fab (SEQ ID NOs: 696, 697)
Assay: phage binding ELISA on plate-captured Fab, competitor CD28 antigen
Experimental: as §2, §3

Binder | Anti-CD28 Fab signal in the presence of CD28
B4 | 0.07
B5 | 0.27
B6 | 0.07
B7 | 0.06
B8 | 0.06
B9 | 0.1
B10 | 0.07
B11 | 0.14
B12 | 0.08
B13 | 0.07
B14 | 0.07
B15 | 0.06
B16 | 0.11
B17 | 0.07
B18 | 0.09
B19 | 0.06
B20 | 0.05

Biological target: T2, Anti-PSMA Fab (SEQ ID NOs: 19, 20)
Assay: phage ELISA; clonal phage supernatant on biotinylated PSMA Fab captured on neutravidin plates, anti-M13 HRP detection
Experimental: as §1

Binder | Phage binding ELISA, Anti-PSMA Fab (SEQ ID NOs: 19, 20) signal
B2 | 0.638
B3 | 0.414
